Results as given in the Immune Epitope Database (IEDB).
pKd: −log10 of the molar value.

What was measured:
Assay in all cases: IEDB peptide-MHC binding, purified MHC/competitive/radioactivity; filed as Kd, often an IC50 or EC50 that approximates it; ≥ and ≤ were set here for values at or beyond the usual limits of such assays
HLA-A*02:03 = target: HLA-A*02:03
HLA-A*02:06 = target: HLA-A*02:06
HLA-A*02:02 = target: HLA-A*02:02
HLA-A*33:01 = conditions: source organism: Vaccinia virus WR
HLA-A*31:01 = conditions: source organism: Vaccinia virus WR
HLA-A*03:01 = conditions: source organism: Vaccinia virus WR
HLA-A*11:01 = conditions: source organism: Vaccinia virus WR
HLA-A*68:01 = conditions: source organism: Vaccinia virus WR
[1] = source organism: Lymphocytic choriomeningitis virus (strain Armstrong)
[2] = source organism: Vaccinia virus WR
[3] = source organism: Vaccinia virus Copenhagen
[4] = source organism: Lassa virus Josiah

## YCNYSKFWYL
HLA-A*02:03; [1]
  pKd: 5.02
HLA-A*02:06; [1]
  pKd: 5.97
HLA-A*02:02; [1]
  pKd: 5.95

## IIGEPIIVA
HLA-A*02:03; [2]
  pKd: 5.32
HLA-A*02:06; [2]
  pKd: 5.87
HLA-A*02:02; [2]
  pKd: 5.63

## SMMVILPDKI
HLA-A*02:03; [2]
  pKd: 7.72
HLA-A*02:06; [2]
  pKd: 8.25
HLA-A*02:02; [2]
  pKd: 7.55

## LLNMRDLIVT
HLA-A*02:03; [2]
  pKd: 6.25
HLA-A*02:06; [2]
  pKd: 6.15
HLA-A*02:02; [2]
  pKd: 5.85

## PVIVPDIKL
HLA-A*02:03; [2]
  pKd: ≤ 4.49
HLA-A*02:06; [2]
  pKd: ≤ 4.29
HLA-A*02:02; [2]
  pKd: ≤ 4.39

## KLYIALCKV
HLA-A*02:03; [3]
  pKd: 8.85
HLA-A*02:06; [3]
  pKd: 7.01
HLA-A*02:02; [3]
  pKd: 7.81

## NMINKLYGYA
HLA-A*02:03; [2]
  pKd: 9.36
HLA-A*02:06; [2]
  pKd: 6.86
HLA-A*02:02; [2]
  pKd: 8.80

## GVEVRYIDI
HLA-A*02:03; [2]
  pKd: ≤ 4.34
HLA-A*02:06; [2]
  pKd: 4.99
HLA-A*02:02; [2]
  pKd: 4.92

## IILFQNNDI
HLA-A*02:03; [2]
  pKd: ≤ 4.28
HLA-A*02:06; [2]
  pKd: 4.92
HLA-A*02:02; [2]
  pKd: 4.95

## IIDLLLPST
HLA-A*02:03; [2]
  pKd: 4.99
HLA-A*02:06; [2]
  pKd: 5.95
HLA-A*02:02; [2]
  pKd: 4.82

## FSTSFYLISI
HLA-A*02:03; [4]
  pKd: 7.28
HLA-A*02:06; [4]
  pKd: 8.03
HLA-A*02:02; [4]
  pKd: 8.67

## ILHNIYRLFT
HLA-A*02:03; [2]
  pKd: 7.97
HLA-A*02:06; [2]
  pKd: 5.92
HLA-A*02:02; [2]
  pKd: 6.90

## YLSKEDRII
HLA-A*02:03; [2]
  pKd: 6.36
HLA-A*02:06; [2]
  pKd: 4.98
HLA-A*02:02; [2]
  pKd: 6.52

## GIFVDTMSI
HLA-A*02:03; [2]
  pKd: 6.03
HLA-A*02:06; [2]
  pKd: 5.79
HLA-A*02:02; [2]
  pKd: 5.54

## LNMFVSDQV
HLA-A*02:03; [1]
  pKd: 6.06
HLA-A*02:06; [1]
  pKd: 5.32
HLA-A*02:02; [1]
  pKd: 7.75

## GLFTSLGKA
HLA-A*02:03; source organism: Dengue virus 4 Dominica/814669/1981
  pKd: 7.97

## CLEAKTHFST
HLA-A*02:03; [2]
  pKd: 4.95
HLA-A*02:06; [2]
  pKd: ≤ 4.16
HLA-A*02:02; [2]
  pKd: 4.91

## VQYENLKYSV
HLA-A*02:06; source organism: Dengue virus 1 Brazil/97-11/1997
  pKd: 7.51

## TIDNIVTSL
HLA-A*02:03; [2]
  pKd: 5.98
HLA-A*02:06; [2]
  pKd: 5.56
HLA-A*02:02; [2]
  pKd: 6.75

## LTDVEKRIL
HLA-A*02:03; [2]
  pKd: ≤ 4.55
HLA-A*02:06; [2]
  pKd: ≤ 4.11
HLA-A*02:02; [2]
  pKd: ≤ 4.56

## VQADMGCVV
HLA-A*02:06; source organism: Dengue virus 4 Singapore/8976/1995
  pKd: 7.63

## GMSIVCIVA
HLA-A*02:03; [2]
  pKd: 6.18
HLA-A*02:06; [2]
  pKd: 5.35
HLA-A*02:02; [2]
  pKd: 6.72

## SLALKNSQA
HLA-A*02:03; [2]
  pKd: 6.34
HLA-A*02:06; [2]
  pKd: 4.72
HLA-A*02:02; [2]
  pKd: 6.18

## VVVGDIIGV
HLA-A*02:06; source organism: Dengue virus 3 Martinique/1243/1999
  pKd: 8.36

## FQSHQLWAT
HLA-A*02:06; source organism: Dengue virus 1 Singapore/S275/1990
  pKd: 7.59

## PLTSLVITY
HLA-A*33:01
  pKd: ≤ 4.33
HLA-A*31:01
  pKd: 5.73
HLA-A*03:01
  pKd: 4.86
HLA-A*11:01
  pKd: ≤ 4.66
HLA-A*68:01
  pKd: 5.25
